From PMC6265470, “Structural, functional and biological insights into the role of Mycobacterium tuberculosis VapBC11 toxin–antitoxin system: targeting a tRNase to tackle mycobacterial adaptation” (Nucleic Acids Research, 2018)
Values joined by “and” are separate entries in the source; they are usually repeats but may differ in a detail not shown here. Equal entries are not always repeated.

B1: VapC11 toxin (purified alone) (enzyme)
chain: ILIDTSAWVEYFRATGSIAAVEVRRLLSEEAARIAMCEPIAMEILSGALDDNTHTTLERLVNGLPSLNVDDAIDFRAAAGIYRAARRAGETVRSINDCLIAALAIRHGARIVHRDADFDVIARITNLQAASFR
notes: VapC11 toxin (PIN domain ribonuclease) of the VapBC11 toxin-antitoxin system, Mycobacterium tuberculosis; 134 amino acids as printed; also called wild-type protein

Assays:
[1] = biological target: B1; assay: SPR; Biacore 3000; VapC11 immobilised on a CM5 chip (up to 750 RU); five concentrations of VapB11 injected; 10 mM HEPES (pH 7.5), 150 mM NaCl, 25°C, 20 μl/min; 1:1 Langmuir model with drifting baseline; details: both partners purified
[2] = biological target: the molecule itself; assay: […] (pH 8.0), 150 mM NaCl, […]
AUC = biological target: the molecule itself; assay: AUC

Row | Binder | Kd [1] [nM] | koff [1] [s⁻¹] | kon [1] [M⁻¹ s⁻¹] | stoichiometry N [2] | stoichiometry N (AUC)
1 | VapB11 (shorter form, VapB11^6-72), (6x-His)-VapB11 (domain or fragment, Homodimer by AUC; also called antitoxin VapB11) MSRTNIDIDDELAAEVMRRFGLTTKRAAVDLALRRLVGSPLSREFLLGLEGVGWEGDLDDLRSDRPD | ~0.6 | 0.000133 | 1.15e+06 | 2 | 
2 | B1 |  |  |  |  | 2 and 4
